What was measured:
[1] = biological target: T1, recombinant human complement component C1s (rhC1s) (human, UniProt P09871 16-688); assay: cell-based or functional assay
T1 sequence (looked up): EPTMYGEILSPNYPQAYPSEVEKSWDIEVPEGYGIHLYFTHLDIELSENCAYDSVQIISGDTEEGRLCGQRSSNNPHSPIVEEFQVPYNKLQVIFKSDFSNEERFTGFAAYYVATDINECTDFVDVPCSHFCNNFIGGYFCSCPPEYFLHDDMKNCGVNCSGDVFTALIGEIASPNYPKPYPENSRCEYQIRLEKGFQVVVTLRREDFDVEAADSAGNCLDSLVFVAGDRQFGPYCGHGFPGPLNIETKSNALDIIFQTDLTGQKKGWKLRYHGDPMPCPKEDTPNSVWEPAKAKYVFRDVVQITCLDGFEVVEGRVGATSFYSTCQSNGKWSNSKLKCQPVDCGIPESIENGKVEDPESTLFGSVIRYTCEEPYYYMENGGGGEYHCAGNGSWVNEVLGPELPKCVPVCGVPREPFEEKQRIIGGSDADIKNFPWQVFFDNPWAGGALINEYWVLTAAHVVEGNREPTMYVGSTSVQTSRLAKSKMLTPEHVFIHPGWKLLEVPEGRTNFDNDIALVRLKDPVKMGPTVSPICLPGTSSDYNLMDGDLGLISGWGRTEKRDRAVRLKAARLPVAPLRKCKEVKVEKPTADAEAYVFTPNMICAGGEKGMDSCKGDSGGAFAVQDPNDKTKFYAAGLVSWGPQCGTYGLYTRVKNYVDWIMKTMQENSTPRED

[2] = biological target: T2, purified human activated C1s protein, two-chain form (Homo sapiens, UniProt P09871 16-688); assay: bio-layer interferometry (BLI), kinetic analysis
T2 construct: Purified protein bought from EMD Millipore; Biotin-labeled in the clone screen; also called active C1s; native C1s protein
T2 sequence: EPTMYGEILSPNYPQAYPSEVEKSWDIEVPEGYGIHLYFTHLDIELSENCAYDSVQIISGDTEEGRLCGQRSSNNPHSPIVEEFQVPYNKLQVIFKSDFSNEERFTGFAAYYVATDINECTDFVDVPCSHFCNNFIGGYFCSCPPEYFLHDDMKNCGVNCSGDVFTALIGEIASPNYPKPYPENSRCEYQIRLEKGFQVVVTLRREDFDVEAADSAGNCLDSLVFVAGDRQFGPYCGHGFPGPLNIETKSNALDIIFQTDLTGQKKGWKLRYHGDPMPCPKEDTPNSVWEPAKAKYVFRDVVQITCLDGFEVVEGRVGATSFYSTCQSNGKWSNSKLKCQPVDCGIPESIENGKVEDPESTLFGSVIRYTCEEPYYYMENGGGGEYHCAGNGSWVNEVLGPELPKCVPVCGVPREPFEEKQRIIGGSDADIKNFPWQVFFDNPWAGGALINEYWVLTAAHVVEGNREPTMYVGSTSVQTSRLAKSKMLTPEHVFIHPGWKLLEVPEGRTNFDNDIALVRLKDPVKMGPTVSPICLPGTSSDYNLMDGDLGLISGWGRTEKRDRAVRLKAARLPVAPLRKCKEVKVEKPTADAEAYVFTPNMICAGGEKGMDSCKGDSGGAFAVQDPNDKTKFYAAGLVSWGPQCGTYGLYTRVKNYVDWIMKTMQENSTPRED

Pro-C1s = biological target: T3, Pro-C1s; assay: bio-layer interferometry (BLI), kinetic analysis
T3 construct: also called purified pro-C1s protein
T3 chain: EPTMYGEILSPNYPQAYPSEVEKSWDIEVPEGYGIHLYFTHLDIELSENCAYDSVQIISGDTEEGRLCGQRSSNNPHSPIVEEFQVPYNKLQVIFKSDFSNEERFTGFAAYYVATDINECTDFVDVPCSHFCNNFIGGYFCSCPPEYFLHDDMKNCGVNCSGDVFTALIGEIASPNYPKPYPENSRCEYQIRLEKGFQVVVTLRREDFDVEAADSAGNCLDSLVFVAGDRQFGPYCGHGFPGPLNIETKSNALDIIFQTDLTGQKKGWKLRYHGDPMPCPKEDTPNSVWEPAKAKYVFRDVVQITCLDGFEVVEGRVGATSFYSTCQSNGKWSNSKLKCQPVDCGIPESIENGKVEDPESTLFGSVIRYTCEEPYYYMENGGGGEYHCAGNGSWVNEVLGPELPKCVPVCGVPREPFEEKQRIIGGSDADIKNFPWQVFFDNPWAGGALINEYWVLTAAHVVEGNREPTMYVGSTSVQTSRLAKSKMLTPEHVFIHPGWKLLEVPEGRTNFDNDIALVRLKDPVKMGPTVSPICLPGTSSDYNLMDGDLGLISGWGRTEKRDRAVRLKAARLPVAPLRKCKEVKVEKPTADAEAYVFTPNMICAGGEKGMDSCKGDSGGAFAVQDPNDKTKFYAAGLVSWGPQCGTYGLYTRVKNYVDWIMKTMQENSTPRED

[3] = biological target: T1, recombinant human complement component …; assay: cell-based or functional assay; remark: listed apart in the source

B1: antibody IPN-M11 (antibody, V domains shown)
VH: QVQLQQSGAELVRPGASVKLSCTASGFNIKDDYIHWVKQRPEQGLEWIGRIDPADDHTKYAPKFQDKATMTADTSSNTACLQLNSLTSEDTAVYYCAIYGSGWAWFPYWGQGTLVSVSA
VL: DIVMTQSPDYLAVSLGQRAPISCKASQSVDYDGDSYMNWYQQKPGQPPKLLIYAASNLEFGIPTRFSGSGFGTDFPLNIHPVEEEDAATYYCQQSNEDPWTFGGGPKLEIK
notes: Mouse monoclonal antibody (NZBW hybridoma)
For B1, the “inhibition of C1s protease activity (relative to nafamostat)” value [1] was > 50%, the Kd [2] was 0.21 nM and the koff [2] was 0.000182 s⁻¹. It also gave a kon [2] of 864000 M⁻¹ s⁻¹, a Kd (Pro-C1s) of 35.2 nM and a koff (Pro-C1s) of 0.000329 s⁻¹. The kon (Pro-C1s) was 9330 M⁻¹ s⁻¹ and the “Inhibition of C1s Protease Activity (%), single point with clone supernatant, relative to 100 nM nafamostat” value [3] was 92%.

B2: antibody IPN-M13 (antibody, V domains shown)
VH: EVQLQQSGAELVRPGASVKLSCTASGFNIKDDYIHWVKQRPEQGLEWIGRIDPADDHTKYAPKFQDKATMTADTSSNTACLQLNSLTSEDTAVYYCAIYGSGWAWFPYWGQGTLVSVSA
VL: DIVLTQSTDYLAVSLGQRATISCKASQSVDYDGDSYMNWYQQKPGQPPKLLIYAASNLESGIPARFSGSGSGTDFTLNIHPVEEEDAATYYCQQSNEDPWTFGGGTKLEIK
notes: Mouse monoclonal antibody (NZBW hybridoma); Same VL and VH as IPN-M1 and IPN-M3
In the case of B2, the “inhibition of C1s protease activity (relative to nafamostat)” value [1] is reported as > 50%, the Kd [2] is reported as 0.133 nM and the koff [2] is reported as 0.000113 s⁻¹. The kon [2] was 851000 M⁻¹ s⁻¹, the Kd (Pro-C1s) was 15.9 nM and the koff (Pro-C1s) was 0.000258 s⁻¹. The kon (Pro-C1s) was 16200 M⁻¹ s⁻¹ and the “Inhibition of C1s Protease Activity (%), single point with clone supernatant, relative to 100 nM nafamostat” value [3] was 96%.

From patent publication US20200079876A1 (BIOVERATIV USA, published 2020)
